Data taken from the supplement of paper PMC10567573.
± gives the standard deviation.

Assay: protein stability index of a GFP-peptide fusion (GPS, HEK-293T) (PSI 1-6); higher = more stable
Details: c terminus: a fixed tail appended
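Further: 24-mer peptide tiles fused after GFP, lentivirally expressed, FACS-sorted into six equal bins by GFP/DsRed ratio, decoded by Illumina sequencing, PSI is the read-weighted mean bin number.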

Sequence | protein stability index (treatment: DMSO) | protein stability index (treatment: MLN4924 1 uM, 8 h)
NNLLSAPPPDVTQLTPPSHDLTDN [ANKRD17] | 5.12 ± 0.28 | 5.18 ± 0.18
NPYYDPLQWKSSHFERRDNMNDNF [CHGB] | 3.27 ± 0.1 | 3.14 ± 0.23
NQHGIILKYIGMAKREINKLLKQK [ARL6IP1] | 1.93 ± 0.39 | 2.16 ± 0.32
NRIKGCHDHLTLSVSRPEGRSWPS [PDLIM4] | 2.87 ± 0.25 | 3.02 ± 0.18
NRNQRIVQLIQDTRIHILPSMNPD [CPN1] | 2.95 ± 0.12 | 3 ± 0.25
NSAMPFKILYDDGKMVEEVDGRAT [PTPRD] | 4.69 ± 0.32 | 4.62 ± 0.13
NSEEEEDDDDEEEEVSEVESFILD [ANKRD17] | 5.06 ± 0.33 | 4.94 ± 0.23
NSNTPVDDFHTNDVCSFPNALVTK [FEM1B] | 4.68 ± 0.26 | 4.5 ± 0.18
NSTGSGRGKKLMVLTEPILIETYT [TPRG1] | 2.57 ± 0.18 | 2.75 ± 0.24
NTELQDVQRIMVANIEEVLQRGEA [SEC22B] | 4.7 ± 0.36 | 4.71 ± 0.25
NTKNEISELTRLIQRIRSEIENVK [KRT71] | 2.83 ± 0.14 | 2.78 ± 0.24
NTKRAIHTLAVMNDRLYAIGGNHL [KLHL14] | 2.2 ± 0.19 | 2.3 ± 0.14
NTSIRVADFGSATFDHEHHTTIVA [CLK3] | 3.52 ± 0.45 | 3.27 ± 0.28
NTVVSTYVTTNVSLIPPRSEQLVN [TMEM106C] | 3.04 ± 0.3 | 3.19 ± 0.24
NVAASNAKLALFYDWLFFSPDKDS [INTS3] | 2.39 ± 0.46 | 2.55 ± 0.55
NVCDDYDVTCNEFFFDRNPGAFGT [KCNG1] | 3.44 ± 0.25 | 3.65 ± 0.12
NYPYDKSFEHRVRGVRRTASTPTP [CPN1] | 4.05 ± 0.4 | 4.14 ± 0.23
PAGERRIYRHRIPSTICFGQGAAR [ZNF511] | 2.89 ± 0.5 | 3.22 ± 0.45
PCCSSSPEEPLNGESYESCCPTSR [FEM1A] | 4.28 ± 0.22 | 4.64 ± 0.31
PCKQCKKKYVKGDVSLCRWHPKPY [FBXO34] | 3.09 ± 0.34 | 3.07 ± 0.51
PCSEFMEPSSDPSLLGEPCAGPGF [SPAG8] | 4.15 ± 0.25 | 4.44 ± 0.28
PDANTWTALPPMNEARHNFGIVEI [GAN] | 2.42 ± 0.34 | 2.51 ± 0.43

Sequence | protein stability index (treatment: DMSO) | protein stability index (treatment: MLN4924 1 uM, 8 h)
PDFILKVVIDKHPVRFFVHKRPHV [CTDNEP1] | 2.46 ± 0.56 | 2.44 ± 0.76
PDGLRSGDGVPPRSLQDGTREGFG [LCOR] | 4.95 ± 0.11 | 5.15 ± 0.16
PDPSHSPSDKVGRADAHLGSSSVA [TOR1AIP2] | 4.98 ± 0.37 | 4.68 ± 0.95
PEDEVIVNQYVIRPGPSASAASSA [RNF208] | 4.61 ± 0.12 | 4.62 ± 0.16
PEERLEKQNEKLNNQEEETEFKEL [CCDC89] | 5.67 ± 0.11 | 5.48 ± 0.29
PEIAQNFSAPDPPRPRPVSLSLRL [SMTNL2] | 2.91 ± 0.27 | 3.04 ± 0.22
PFNQSTFNNVVEQNFKNRESYPED [DLC1] | 4.62 ± 0.14 | 4.66 ± 0.16
PGRPRTDGENVFTGQSKIYSYMSP [KMT5A] | 3.4 ± 0.39 | 3.58 ± 0.23
PHLMPSNCGLEEKIANLGSCNDSK [S100A14] | 2.61 ± 0.9 | 1.66 ± 0.27
PHQPVTAITRVSDRFSGETSAAAL [SMTNL2] | 4.32 ± 0.39 | 4.32 ± 0.17
PKLREETAHMLGVRELRIAFREFD [CABP4] | 2.92 ± 0.29 | 3.17 ± 0.29
PLGLEVDQFLEDVRLQERTSGGLL [NOP53] | 4.42 ± 0.14 | 4.47 ± 0.12
PLNPKPHKKKSPGEKPHRCPQCGK [ZNF449] | 4.24 ± 0.12 | 4.49 ± 0.35
PLRAVHINLEEKEKQIRSFLIEGP [PLEKHN1] | 3.7 ± 0.31 | 3.8 ± 0.2
PNTAVSVHVSESSDDDEEEEENIG [ACBD3] | 5.5 ± 0.3 | 5.63 ± 0.12
PPQPMVPLAVENQAGGEGAGGELG [PBXIP1] | 5.52 ± 0.11 | 5.51 ± 0.12
PPTRGPPPSYGGSSRYDDYSSSRD [RBMX] | 5.05 ± 0.23 | 4.93 ± 0.19
PQDGSYPRQADHDDHECCERVVIN [KCNA1] | 5.22 ± 0.41 | 5.18 ± 0.34
PQDSGTAAWKGRVLLPETQKRQQL [C22orf31] | 4.44 ± 0.17 | 4.27 ± 0.29
PQEESEESNVSMASLGEKRDHHST [CHGB] | 5.59 ± 0.37 | 5.58 ± 0.16
PQSPPSCRAPPPEARGIRAPPLPD [FCHO1] | 4.92 ± 0.12 | 5.09 ± 0.24
PREQAARFCSEIKSSKYGEGHQAW [SEPHS2] | 3.36 ± 0.12 | 3.52 ± 0.19

Sequence | protein stability index (treatment: DMSO) | protein stability index (treatment: MLN4924 1 uM, 8 h)
PRMLRESGHGDAHLQEYAGNFQGI [FATE1] | 4 ± 0.24 | 4.22 ± 0.13
PSMIATGSVGAAICGLQQDEEVSS [CCND2] | 5.41 ± 0.1 | 5.15 ± 0.27
PTQVPAAEDYLTWKEWGFTGVQEV [SPAG8] | 3.5 ± 0.24 | 3.59 ± 0.31
PTVHVEVHQRGSSTAKKEDINLSV [TRIP13] | 4.83 ± 0.2 | 4.84 ± 0.29
PVIAAPSMWTRPQIKDFKEKIQQD [ACBD3] | 4.59 ± 0.32 | 4.41 ± 0.4
PVKELAALPKATILDLSCNKLTTL [LRRC59] | 3.26 ± 0.1 | 3.43 ± 0.35
PVRAYDFLLKFLLVGDSDVGKGEI [RAB40B] | 2.28 ± 0.3 | 2.62 ± 0.58
PYYLRSFLVVLKTVLENEDDMLLF [FAN1] | 2.27 ± 0.36 | 2.26 ± 0.25
QACARNILVQTPESESPQSHRAAG [TRIM9] | 4.46 ± 0.16 | 4.5 ± 0.27
QACMGGRCLHMDQLQDFNIPQAGG [ADAMTS4] | 3.38 ± 0.15 | 3.21 ± 0.09
QAQQKKAPAKKANSTTTAGRDHFL [BRD3] | 4.44 ± 0.48 | 4.62 ± 0.15
QARHQLVLTAVDGGTPARSGTTLI [PCDHGC5] | 3.18 ± 0.083 | 3.15 ± 0.38
QEGSSGMELSWGQSPGQPVQGGSE [TEX19] | 5.28 ± 0.26 | 5.29 ± 0.51
QEKEELRELNDRLAVYIDKVRSLE [LMNB1] | 3.72 ± 0.31 | 3.9 ± 0.2
QGRKIAEVCCTSIVYATEKKQTKV [KCTD13] | 3.39 ± 0.15 | 3.61 ± 0.28
QIKTLLALSCHEQEMVVSSLVIGA [SLC2A12] | 3.78 ± 0.47 | 3.1 ± 0.55
QIPVTDSGRHILEDSCAELGESKE [SDE2] | 5.35 ± 0.12 | 5.19 ± 0.38
QIRTVIQYQTVRYDILPLSPVSRN [CTDNEP1] | 2.36 ± 0.2 | 2.26 ± 0.13
QKASLLIQQALTMFPGVLLPLLES [TCF25] | 3.23 ± 0.48 | 3.51 ± 0.29
QKKDCVPLMKPHRPWADTCSSSGK [HESX1] | 3.49 ± 0.52 | 3.67 ± 0.53
QKKQKLEQKAAGSASAKRVWNMTA [FATE1] | 4.01 ± 0.15 | 3.93 ± 0.37
